Results: US20230052256A1

How the values were obtained:
[1] = biological target: recombinant human FGFR1b-Fc (R&D Systems) (human) (UniProt P11362); assay: SPR (Biacore T200), hFGFR1b-Fc amine-coupled to CM5 chip, antibody injected
[2] = biological target: recombinant human FGFR1b-Fc (R&D Systems) (human) (UniProt P11362); assay: SPR (Biacore T200), hFGFR1b-Fc amine-coupled to a CM5 chip, antibody injected at 0-200 nM
[3] = biological target: human FGFR2b (beta)-Fc, human Fc fusion (human); assay: SPR (Biacore T200), hFGFR2b-Fc amine-coupled to a CM5 chip, antibody injected at 0-200 nM

Chain of recombinant human FGFR1b-Fc (R&D Systems) (human) (P11362 other isoform, or with tags, fused parts or gaps limits assumed): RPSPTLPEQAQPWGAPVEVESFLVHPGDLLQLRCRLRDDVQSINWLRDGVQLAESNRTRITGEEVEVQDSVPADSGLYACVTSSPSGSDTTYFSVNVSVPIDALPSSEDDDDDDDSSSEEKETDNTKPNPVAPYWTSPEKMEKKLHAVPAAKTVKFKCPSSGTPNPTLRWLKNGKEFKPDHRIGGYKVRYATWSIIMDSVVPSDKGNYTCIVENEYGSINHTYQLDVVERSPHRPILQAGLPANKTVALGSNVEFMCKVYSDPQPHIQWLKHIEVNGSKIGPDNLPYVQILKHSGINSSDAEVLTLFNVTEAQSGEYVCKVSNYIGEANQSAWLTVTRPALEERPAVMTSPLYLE

Kd [1]: 225 nM | koff [2]: 0.00746 s⁻¹ | kon [2]: 33200 M⁻¹ s⁻¹ | Kd [3]: 0.75 nM | koff [3]: 7.77e-05 s⁻¹ | kon [3]: 104000 M⁻¹ s⁻¹
B1: FPA144 (clinical stage anti-human FGFR2b specific antibody) (antibody, INN chains, looked up, V domains shown)
VH: QVQLVQSGAEVKKPGSSVKVSCKASGYIFTTYNVHWVRQAPGQGLEWIGSIYPDNGDTSYNQNFKGRATITADKSTSTAYMELSSLRSEDTAVYYCARGDFAYWGQGTLVTVSS
VL: DIQMTQSPSSLSASVGDRVTITCKASQGVSNDVAWYQQKPGKAPKLLIYSASYRYTGVPSRFSGSGSGTDFTFTISSLQPEDIATYYCQQHSTTPYTFGQGTKLEIK
